Results from the supplement of paper PMC7125110.
± gives the standard error. This sample holds only a part of the variants without activity.

B1: glmS ribozyme (parent)
chain: AUAAAAGCGCCAGAACUACAGAAAUGUAGUUGACGAGGAGGAGGUUUAUCGAAUUUUCGGCGGAUGCCUCCAAA

Key:
Conditions in all cases: with glucosamine-6-phosphate
[1] = variants of: B1; assay: self-cleavage kobs at 40 uM GlcN6P; higher = faster cleavage; RNA array
Summary of the method: (§1)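 The measurements used barcoded ribozyme variants on sequenced MiSeq chips, transcribed in situ by E. coli RNA polymerase and tracked at 37 °C with a hybridised Cy3 probe. Glucosamine-6-phosphate, 40 μM to 10 mM in HEPES/KCl/Mg(OAc)2 buffer, was flowed in while tiles were imaged over ~14 h. Baseline-normalised signals, also normalised to non-cleaving reference variants, gave per-tile medians that were fit to one- or two-exponential decays for kobs. kcat and KM resulted from weighted Michaelis–Menten fits across concentrations.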

[2] = variants of: B1; assay: self-cleavage kobs at 10000 uM GlcN6P; higher = faster cleavage; RNA array
Summary of the method: as §1

[3] = variants of: B1; assay: self-cleavage kobs at 2500 uM GlcN6P; higher = faster cleavage; RNA array
Summary of the method: as §1

[4] = variants of: B1; assay: self-cleavage kobs at 160 uM GlcN6P; higher = faster cleavage; RNA array
Summary of the method: as §1

[5] = variants of: B1; assay: self-cleavage kobs at 640 uM GlcN6P; higher = faster cleavage; RNA array
Summary of the method: as §1

## C16U G41U A53U
[1]
  self-cleavage kobs at 40 uM GlcN6P: 3.27e-05 ± 1.6e-05 s⁻¹
[2]
  self-cleavage kobs at 10000 uM GlcN6P: 0.00071 ± 0.00015 s⁻¹

## G40C C61A
[1]
  self-cleavage kobs at 40 uM GlcN6P: < 1e-05 s⁻¹
[3]
  self-cleavage kobs at 2500 uM GlcN6P: < 1e-05 s⁻¹

## G7U G32U
[1]
  self-cleavage kobs at 40 uM GlcN6P: < 1e-05 s⁻¹
[4]
  self-cleavage kobs at 160 uM GlcN6P: < 1e-05 s⁻¹
[5]
  self-cleavage kobs at 640 uM GlcN6P: < 1e-05 s⁻¹
[3]
  self-cleavage kobs at 2500 uM GlcN6P: < 1e-05 s⁻¹
[2]
  self-cleavage kobs at 10000 uM GlcN6P: < 1e-05 s⁻¹

## C11G G13A
[1]
  self-cleavage kobs at 40 uM GlcN6P: < 1e-05 s⁻¹
[4]
  self-cleavage kobs at 160 uM GlcN6P: < 1e-05 s⁻¹
[2]
  self-cleavage kobs at 10000 uM GlcN6P: < 1e-05 s⁻¹

## C58A G59U C68U
[1]
  self-cleavage kobs at 40 uM GlcN6P: < 1e-05 s⁻¹

## A12U C34G G40C C50A
[1]
  self-cleavage kobs at 40 uM GlcN6P: < 1e-05 s⁻¹
[4]
  self-cleavage kobs at 160 uM GlcN6P: < 1e-05 s⁻¹
[5]
  self-cleavage kobs at 640 uM GlcN6P: < 1e-05 s⁻¹
[3]
  self-cleavage kobs at 2500 uM GlcN6P: < 1e-05 s⁻¹

## C10G G43U U47G C61A
[1]
  self-cleavage kobs at 40 uM GlcN6P: < 1e-05 s⁻¹
[5]
  self-cleavage kobs at 640 uM GlcN6P: < 1e-05 s⁻¹
[3]
  self-cleavage kobs at 2500 uM GlcN6P: < 1e-05 s⁻¹

## A15G U47G G60A C61U C68A
[1]
  self-cleavage kobs at 40 uM GlcN6P: 6.07e-05 ± 2.7e-05 s⁻¹
[5]
  self-cleavage kobs at 640 uM GlcN6P: 0.000299 ± 9.2e-05 s⁻¹
[3]
  self-cleavage kobs at 2500 uM GlcN6P: 0.00013 ± 3.6e-05 s⁻¹

## G9U C10G
[1]
  self-cleavage kobs at 40 uM GlcN6P: < 1e-05 s⁻¹
[4]
  self-cleavage kobs at 160 uM GlcN6P: < 1e-05 s⁻¹
[5]
  self-cleavage kobs at 640 uM GlcN6P: < 1e-05 s⁻¹
[3]
  self-cleavage kobs at 2500 uM GlcN6P: < 1e-05 s⁻¹
[2]
  self-cleavage kobs at 10000 uM GlcN6P: < 1e-05 s⁻¹

## A6C C10U U30G A52G
[1]
  self-cleavage kobs at 40 uM GlcN6P: < 1e-05 s⁻¹
[2]
  self-cleavage kobs at 10000 uM GlcN6P: < 1e-05 s⁻¹

## C16A C58U
[1]
  self-cleavage kobs at 40 uM GlcN6P: < 1e-05 s⁻¹
[4]
  self-cleavage kobs at 160 uM GlcN6P: < 1e-05 s⁻¹
[2]
  self-cleavage kobs at 10000 uM GlcN6P: 3.14e-05 ± 1.3e-05 s⁻¹

## G38A U49C
[1]
  self-cleavage kobs at 40 uM GlcN6P: < 1e-05 s⁻¹
[3]
  self-cleavage kobs at 2500 uM GlcN6P: < 1e-05 s⁻¹

## A42C U45A C67A
[1]
  self-cleavage kobs at 40 uM GlcN6P: < 1e-05 s⁻¹

## A6C A39G G41A U46A A64G
[1]
  self-cleavage kobs at 40 uM GlcN6P: < 1e-05 s⁻¹
[2]
  self-cleavage kobs at 10000 uM GlcN6P: < 1e-05 s⁻¹

## C8U U30G
[1]
  self-cleavage kobs at 40 uM GlcN6P: < 1e-05 s⁻¹
[4]
  self-cleavage kobs at 160 uM GlcN6P: < 1e-05 s⁻¹
[5]
  self-cleavage kobs at 640 uM GlcN6P: < 1e-05 s⁻¹
[2]
  self-cleavage kobs at 10000 uM GlcN6P: < 1e-05 s⁻¹

## A6G A42C C71U
[1]
  self-cleavage kobs at 40 uM GlcN6P: < 1e-05 s⁻¹
[5]
  self-cleavage kobs at 640 uM GlcN6P: < 1e-05 s⁻¹

## G9A G32C A52U
[1]
  self-cleavage kobs at 40 uM GlcN6P: < 1e-05 s⁻¹
[2]
  self-cleavage kobs at 10000 uM GlcN6P: < 1e-05 s⁻¹

## C10G U65A
[1]
  self-cleavage kobs at 40 uM GlcN6P: < 1e-05 s⁻¹
[5]
  self-cleavage kobs at 640 uM GlcN6P: < 1e-05 s⁻¹
[2]
  self-cleavage kobs at 10000 uM GlcN6P: < 1e-05 s⁻¹

## U56A C70U
[1]
  self-cleavage kobs at 40 uM GlcN6P: 0.000377 ± 3.2e-05 s⁻¹
[4]
  self-cleavage kobs at 160 uM GlcN6P: 0.000852 ± 0.00013 s⁻¹
[5]
  self-cleavage kobs at 640 uM GlcN6P: 0.002 ± 0.00026 s⁻¹
[3]
  self-cleavage kobs at 2500 uM GlcN6P: 0.0104 ± 0.0022 s⁻¹
[2]
  self-cleavage kobs at 10000 uM GlcN6P: 0.0156 ± 0.0024 s⁻¹

## G38C U56C
[1]
  self-cleavage kobs at 40 uM GlcN6P: < 1e-05 s⁻¹
[4]
  self-cleavage kobs at 160 uM GlcN6P: < 1e-05 s⁻¹
[3]
  self-cleavage kobs at 2500 uM GlcN6P: < 1e-05 s⁻¹
[2]
  self-cleavage kobs at 10000 uM GlcN6P: < 1e-05 s⁻¹

## C16A G26A C68G
[1]
  self-cleavage kobs at 40 uM GlcN6P: 3.64e-05 ± 1.7e-05 s⁻¹
[2]
  self-cleavage kobs at 10000 uM GlcN6P: 3.65e-05 ± 1.5e-05 s⁻¹

## A14U A52C C71G
[1]
  self-cleavage kobs at 40 uM GlcN6P: < 1e-05 s⁻¹
[5]
  self-cleavage kobs at 640 uM GlcN6P: < 1e-05 s⁻¹

## G43A G59C
[1]
  self-cleavage kobs at 40 uM GlcN6P: < 1e-05 s⁻¹
[4]
  self-cleavage kobs at 160 uM GlcN6P: < 1e-05 s⁻¹
[5]
  self-cleavage kobs at 640 uM GlcN6P: < 1e-05 s⁻¹
[2]
  self-cleavage kobs at 10000 uM GlcN6P: < 1e-05 s⁻¹

## G7A G37C A42U
[1]
  self-cleavage kobs at 40 uM GlcN6P: < 1e-05 s⁻¹
[5]
  self-cleavage kobs at 640 uM GlcN6P: < 1e-05 s⁻¹
[3]
  self-cleavage kobs at 2500 uM GlcN6P: < 1e-05 s⁻¹
[2]
  self-cleavage kobs at 10000 uM GlcN6P: < 1e-05 s⁻¹

## C16U A42G C61G
[1]
  self-cleavage kobs at 40 uM GlcN6P: < 1e-05 s⁻¹

## U31G A48U
[1]
  self-cleavage kobs at 40 uM GlcN6P: < 1e-05 s⁻¹
[3]
  self-cleavage kobs at 2500 uM GlcN6P: 8.46e-05 ± 1.6e-05 s⁻¹
[2]
  self-cleavage kobs at 10000 uM GlcN6P: 5.93e-05 ± 2.1e-05 s⁻¹

## C16G G38C
[1]
  self-cleavage kobs at 40 uM GlcN6P: < 1e-05 s⁻¹
[4]
  self-cleavage kobs at 160 uM GlcN6P: < 1e-05 s⁻¹

## G38A A48U
[1]
  self-cleavage kobs at 40 uM GlcN6P: < 1e-05 s⁻¹
[5]
  self-cleavage kobs at 640 uM GlcN6P: < 1e-05 s⁻¹
[2]
  self-cleavage kobs at 10000 uM GlcN6P: < 1e-05 s⁻¹

## U31C A33C A36G C71G
[1]
  self-cleavage kobs at 40 uM GlcN6P: < 1e-05 s⁻¹

## C34U U55C
[1]
  self-cleavage kobs at 40 uM GlcN6P: < 1e-05 s⁻¹
[4]
  self-cleavage kobs at 160 uM GlcN6P: < 1e-05 s⁻¹
[5]
  self-cleavage kobs at 640 uM GlcN6P: < 1e-05 s⁻¹
[3]
  self-cleavage kobs at 2500 uM GlcN6P: < 1e-05 s⁻¹
[2]
  self-cleavage kobs at 10000 uM GlcN6P: < 1e-05 s⁻¹

## C8U G32A G41U
[1]
  self-cleavage kobs at 40 uM GlcN6P: < 1e-05 s⁻¹
[4]
  self-cleavage kobs at 160 uM GlcN6P: < 1e-05 s⁻¹
[5]
  self-cleavage kobs at 640 uM GlcN6P: < 1e-05 s⁻¹
[3]
  self-cleavage kobs at 2500 uM GlcN6P: < 1e-05 s⁻¹
[2]
  self-cleavage kobs at 10000 uM GlcN6P: < 1e-05 s⁻¹

## A14C C50G C68A
[1]
  self-cleavage kobs at 40 uM GlcN6P: 4.86e-05 ± 1.6e-05 s⁻¹
[2]
  self-cleavage kobs at 10000 uM GlcN6P: 0.000123 ± 2.5e-05 s⁻¹

## A48G A64U
[1]
  self-cleavage kobs at 40 uM GlcN6P: < 1e-05 s⁻¹
[4]
  self-cleavage kobs at 160 uM GlcN6P: < 1e-05 s⁻¹
[5]
  self-cleavage kobs at 640 uM GlcN6P: < 1e-05 s⁻¹
[2]
  self-cleavage kobs at 10000 uM GlcN6P: < 1e-05 s⁻¹

## A12G U27C G29U
[1]
  self-cleavage kobs at 40 uM GlcN6P: < 1e-05 s⁻¹
[5]
  self-cleavage kobs at 640 uM GlcN6P: < 1e-05 s⁻¹
[3]
  self-cleavage kobs at 2500 uM GlcN6P: < 1e-05 s⁻¹

## A15C G32U A33C
[1]
  self-cleavage kobs at 40 uM GlcN6P: < 1e-05 s⁻¹
[4]
  self-cleavage kobs at 160 uM GlcN6P: < 1e-05 s⁻¹
[5]
  self-cleavage kobs at 640 uM GlcN6P: < 1e-05 s⁻¹
[3]
  self-cleavage kobs at 2500 uM GlcN6P: < 1e-05 s⁻¹
[2]
  self-cleavage kobs at 10000 uM GlcN6P: < 1e-05 s⁻¹

## G37A G51A U55G
[1]
  self-cleavage kobs at 40 uM GlcN6P: < 1e-05 s⁻¹
[2]
  self-cleavage kobs at 10000 uM GlcN6P: < 1e-05 s⁻¹

## G29A A36U
[1]
  self-cleavage kobs at 40 uM GlcN6P: < 1e-05 s⁻¹
[5]
  self-cleavage kobs at 640 uM GlcN6P: < 1e-05 s⁻¹
[3]
  self-cleavage kobs at 2500 uM GlcN6P: < 1e-05 s⁻¹

## A14G A39C G66A
[1]
  self-cleavage kobs at 40 uM GlcN6P: 9.51e-05 ± 2.2e-05 s⁻¹
[3]
  self-cleavage kobs at 2500 uM GlcN6P: 0.00447 ± 0.00085 s⁻¹
[2]
  self-cleavage kobs at 10000 uM GlcN6P: 0.00527 ± 0.0016 s⁻¹

## C8A G13A U47G G60U
[1]
  self-cleavage kobs at 40 uM GlcN6P: < 1e-05 s⁻¹

## G62A G66U
[1]
  self-cleavage kobs at 40 uM GlcN6P: < 1e-05 s⁻¹
[5]
  self-cleavage kobs at 640 uM GlcN6P: < 1e-05 s⁻¹
[3]
  self-cleavage kobs at 2500 uM GlcN6P: < 1e-05 s⁻¹
[2]
  self-cleavage kobs at 10000 uM GlcN6P: < 1e-05 s⁻¹

## A14U G35U G44C
[1]
  self-cleavage kobs at 40 uM GlcN6P: < 1e-05 s⁻¹
[4]
  self-cleavage kobs at 160 uM GlcN6P: < 1e-05 s⁻¹
[5]
  self-cleavage kobs at 640 uM GlcN6P: < 1e-05 s⁻¹
[3]
  self-cleavage kobs at 2500 uM GlcN6P: < 1e-05 s⁻¹
[2]
  self-cleavage kobs at 10000 uM GlcN6P: < 1e-05 s⁻¹

## G35U G43U U54A
[1]
  self-cleavage kobs at 40 uM GlcN6P: < 1e-05 s⁻¹
[2]
  self-cleavage kobs at 10000 uM GlcN6P: < 1e-05 s⁻¹

## G44A C67U
[1]
  self-cleavage kobs at 40 uM GlcN6P: 0.000707 ± 7e-05 s⁻¹
[4]
  self-cleavage kobs at 160 uM GlcN6P: 0.00265 ± 0.00064 s⁻¹
[5]
  self-cleavage kobs at 640 uM GlcN6P: 0.00449 ± 0.0011 s⁻¹
[3]
  self-cleavage kobs at 2500 uM GlcN6P: 0.006 ± 0.0018 s⁻¹
[2]
  self-cleavage kobs at 10000 uM GlcN6P: 0.0388 ± 0.0061 s⁻¹
